Laboratory results as given in US20260078197A1.

Target: Macaca fascicularis (crab-eating macaque) TFR1 expressed on CHO-S cells (Macaca fascicularis (crab-eating macaque))
Experiment: flow cytometry on CHO-S-fasTFR1 cells; anti-hIgG-Fc Alexa Fluor 647 secondary

Macaca fascicularis (crab-eating macaque) TFR1 expressed on CHO-S cells (Macaca fascicularis (crab-eating macaque)), sequence (chain, as listed by the source limits assumed): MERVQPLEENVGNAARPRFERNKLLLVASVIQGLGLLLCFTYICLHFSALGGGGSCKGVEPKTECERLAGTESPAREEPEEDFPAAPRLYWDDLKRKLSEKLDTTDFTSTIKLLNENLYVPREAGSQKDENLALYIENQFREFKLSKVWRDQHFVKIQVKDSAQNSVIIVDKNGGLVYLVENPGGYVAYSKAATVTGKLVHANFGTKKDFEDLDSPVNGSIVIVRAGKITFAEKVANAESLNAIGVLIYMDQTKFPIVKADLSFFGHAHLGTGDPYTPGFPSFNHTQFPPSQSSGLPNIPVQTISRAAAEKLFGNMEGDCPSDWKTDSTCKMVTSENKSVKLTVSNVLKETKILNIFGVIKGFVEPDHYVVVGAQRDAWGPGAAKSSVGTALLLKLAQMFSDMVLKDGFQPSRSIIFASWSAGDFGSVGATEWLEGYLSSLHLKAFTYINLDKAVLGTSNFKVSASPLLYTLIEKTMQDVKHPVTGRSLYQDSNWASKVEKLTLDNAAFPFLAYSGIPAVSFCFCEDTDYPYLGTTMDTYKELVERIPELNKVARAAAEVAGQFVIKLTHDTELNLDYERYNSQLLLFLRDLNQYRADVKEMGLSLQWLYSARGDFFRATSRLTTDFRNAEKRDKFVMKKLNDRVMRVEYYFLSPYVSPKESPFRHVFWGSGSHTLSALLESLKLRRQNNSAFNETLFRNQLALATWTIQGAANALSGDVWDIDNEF

B1: 24C9 (antibody, human IgG1, V domains shown)
VH: EVQLVQSGGGVVQPGRSLRLSCAASGFTLSSYGMYWVRQAPGKGREWVAFIRFDESKKYYADSVKGRFTISRDNSKNTLYLQMNSLRAEDTAVYYCARDGEGGYCTNGVCHGLDVWGQGTTVTVSS
Percentage of Positive Cells: 0.35%
